Experimental data: US20220395553A1 (COHBAR, published 2022)
Square brackets hold non-standard residues; d marks the D form. Ends that are not written are not given here.

These binders were tested against T1, SNAP tagged-CXC4 receptor labeled with terbium (Tag-lite CXCR4 cells, HEK293) (UniProt P61073 1-352, SNAP tag labeled with terbium fluorescent dye) (assay: HTRF competition on Tag-lite CXCR4 HEK293 cells; competitor labelled CXCL12).
T1 construct: whole, on cells; Bought frozen cells (PerkinElmer-CisBio), HEK293 transiently expressing the receptor; also called terbium labeled CXCR receptor
Protocol: (§1) Peptides were initially prepared as 1 mM stock in H₂O and tested at a final concentration of 400 nM. Following the manufacture's protocol, a frozen aliquot of Tag-lite CXCR4 cells was thawed and immediately seeded onto 384-well plates in TLB. Immediately following the addition of cells, 400 nM peptide (final concentration) in TLB was added to the appropriate well. […] The plates were covered in aluminum foil and left at room temperature for 3 hours. Following the 3 hour incubation period, the plates were removed from the incubator and fluorescence measured using a Cytation 1 plate reader using a HTRF filter cube ([…]; BioTek; Winooski, Vt.).

T1 sequence (P61073 whole entry): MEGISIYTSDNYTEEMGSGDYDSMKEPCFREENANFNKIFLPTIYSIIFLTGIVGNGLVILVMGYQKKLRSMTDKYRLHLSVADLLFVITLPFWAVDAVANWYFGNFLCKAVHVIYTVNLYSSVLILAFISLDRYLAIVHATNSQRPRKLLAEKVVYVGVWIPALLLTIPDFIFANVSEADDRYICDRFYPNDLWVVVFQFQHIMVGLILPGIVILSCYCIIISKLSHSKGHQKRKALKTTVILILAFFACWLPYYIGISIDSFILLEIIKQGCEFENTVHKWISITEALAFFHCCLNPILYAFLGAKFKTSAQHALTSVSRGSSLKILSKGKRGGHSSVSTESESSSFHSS

Binder | Percent Inhibition of CXCR4/CXCL12 Binding (400 nM peptide) [%]
LERYHHSVRSTLRPYTK [SEQ ID NO: 74] | 88
LRRYHHSVRSSLRGYTK [SEQ ID NO: 79] | 12
LERYHHSVRSSLRPYTK [SEQ ID NO: 4] | 88
LRRYHHSVRTSLRPYTK [SEQ ID NO: 70] | 11
LERYHHTVRSSLRPYTK [SEQ ID NO: 39] | 87
LERYHHSVRSSLRPYSK [SEQ ID NO: 75] | 81
LERYHHSVRTSLRPYTK [SEQ ID NO: 73] | 87

What follows are binders tested against T2, ProLink tagged human CXCR4 (C2C12 CXCR4 β-Arrestin cell line) (human, UniProt P61073 1-352) (assay: cell-based or functional assay).
T2 sequence (P61073 whole entry): as above

Binder | IC50 for Inhibition of CXCR4 Activation (β-Arrestin recruitment) [nM]
MLRRYHHSVRSSLRPYTK [SEQ ID NO: 2] | 11
LERYHHSVRSTLRPYTK [SEQ ID NO: 74] | 5
LRRYHHSVRSSLRGYTK [SEQ ID NO: 79] | 3
LRRYHHSVRTSLRPYTK [SEQ ID NO: 70] | 2
LERYHHTVRSSLRPYTK [SEQ ID NO: 39] | 3
LERYHHSVRSSLRPYSK [SEQ ID NO: 75] | 4
LERYHHS[dA]RSSLRPYT [SEQ ID NO: 5] | 244
LERYHHSVRTSLRPYTK [SEQ ID NO: 73] | 4

These binders were tested against T3, ProLink tagged human CXCR4 (C2C12 CXCR4 β-Arrestin cell line) (human, UniProt P61073 1-352) (assay: cell-based or functional assay).
T3 sequence (P61073 whole entry): as above

Binder | IC50 for Inhibition of CXCR4 Activation (β-Arrestin recruitment) [nM]
LERYHHSVRSSLRPYTK-NH2 [SEQ ID NO: 56] | 11
LERYHHSVRSSLRPYTK [SEQ ID NO: 4] | 4
LRRYHHSVRSSLRPYTK-NH2 [SEQ ID NO: 16] | 8
LRRYHHSVRSSLRPYTK [SEQ ID NO: 3] | 5

Each binder was assayed against T4, CXCR4 on cultured U937 and Jurkat cells (human, UniProt P61073 1-352) (assay: cell-based or functional assay).
T4 sequence (P61073 whole entry): as above

Binder | Percent Inhibition of CXCL12 Mediated Migration (1.1 µM Test Article; Jurkat cells) [%]
MLRRYHHSVRSSLRPYTK [SEQ ID NO: 2] | 4
LERYHHSVRSSLRPYTK-NH2 [SEQ ID NO: 56] | 83
LERYHHSVRSTLRPYTK [SEQ ID NO: 74] | 61
LRRYHHSVRSSLRGYTK [SEQ ID NO: 79] | 36
LERYHHSVRSSLRPYTK [SEQ ID NO: 4] | 77
LRRYHHSVRTSLRPYTK [SEQ ID NO: 70] | 21
LERYHHTVRSSLRPYTK [SEQ ID NO: 39] | 77
LRRYHHSVRSSLRPYTK-NH2 [SEQ ID NO: 16] | 21
LRRYHHSVRSSLRPYTK [SEQ ID NO: 3] | 66
LERYHHSVRSSLRPYSK [SEQ ID NO: 75] | 81
LERYHHS[dA]RSSLRPYT [SEQ ID NO: 5] | 46
LERYHHSVRTSLRPYTK [SEQ ID NO: 73] | 82

Biological target: T1, SNAP tagged-CXC4 receptor labeled with …
Assay: HTRF competition on Tag-lite CXCR4 HEK293 cells; competitor labelled CXCL12
Remark: another data set of the same source
Protocol: as §1, with “H₂O. […]” for “H₂O and tested at a final concentration of 400 nM.”, “TLB.” for “TLB. Immediately following the addition of cells, 400 nM peptide (final concentration) in TLB was added to the appropriate well.”

Binder | IC50 [nM]
MLRRYHHSVRSSLRPYTK [SEQ ID NO: 2] | 375
LERYHHSVRSTLRPYTK [SEQ ID NO: 74] | 6
LRRYHHSVRSSLRGYTK [SEQ ID NO: 79] | 670
LERYHHSVRSSLRPYTK [SEQ ID NO: 4] | 6
LRRYHHSVRTSLRPYTK [SEQ ID NO: 70] | 336
LERYHHTVRSSLRPYTK [SEQ ID NO: 39] | 8
LRRYHHSVRSSLRPYTK [SEQ ID NO: 3] | 497
LERYHHSVRSSLRPYSK [SEQ ID NO: 75] | 11
LERYHHS[dA]RSSLRPYT [SEQ ID NO: 5] | 33
LERYHHSVRTSLRPYTK [SEQ ID NO: 73] | 10

Biological target: T2, ProLink tagged human CXCR4 (C2C12 CXCR4 …)
Assay: cell-based or functional assay
Remark: another data set of the same source

Binder | IC50 for Inhibition of CXCR4 (β-Arrestin recruitment) [nM]
LERYHHS[dA]RSSLRPYT [SEQ ID NO: 5] | 121

Biological target: T3, ProLink tagged human CXCR4 (C2C12 CXCR4 …)
Assay: cell-based or functional assay
Remark: another data set of the same source

Binder | IC50 for Inhibition of CXCR4 (β-Arrestin recruitment) [nM]
LERYHHSVRSSLRPYTK [SEQ ID NO: 4] | 2.28
LRRYHHSVRSSLRPYTK [SEQ ID NO: 3] | 0.51

Biological target: T4, CXCR4 on cultured U937 and Jurkat cells
Assay: cell-based or functional assay
Remark: another data set of the same source

Binder | Percent Inhibition of CXCL12 Mediated Migration (U937 cells) [%]
MLRRYHHSVRSSLRPYTK [SEQ ID NO: 2] | 58
LERYHHSVRSSLRPYTK [SEQ ID NO: 4] | 98
LRRYHHSVRSSLRPYTK [SEQ ID NO: 3] | 101
LERYHHS[dA]RSSLRPYT [SEQ ID NO: 5] | 86

Biological target: T4, CXCR4 on cultured U937 and Jurkat cells
Assay: cell-based or functional assay
Remark: another data set of the same source

Binder | Percent Inhibition of CXCR4/CXCL12 Induced p-MEK (100 nM Test Article) [%] | Percent Inhibition of CXCR4/CXCL12 Induced p-MEK (1 µM Test Article) [%]
MLRRYHHSVRSSLRPYTK [SEQ ID NO: 2] | -1 | 28
LERYHHSVRSSLRPYTK-NH2 [SEQ ID NO: 56] | 69 | 98
LERYHHSVRSTLRPYTK [SEQ ID NO: 74] | 48 | 93
LRRYHHSVRSSLRGYTK [SEQ ID NO: 79] | 46 | 100
LERYHHSVRSSLRPYTK [SEQ ID NO: 4] | 40 | 76
LRRYHHSVRTSLRPYTK [SEQ ID NO: 70] | 57 | 93
LERYHHTVRSSLRPYTK [SEQ ID NO: 39] | 38 | 95
LRRYHHSVRSSLRPYTK-NH2 [SEQ ID NO: 16] | 74 | 100
LRRYHHSVRSSLRPYTK [SEQ ID NO: 3] | 29 | 91
LERYHHSVRSSLRPYSK [SEQ ID NO: 75] | 60 | 100
LERYHHS[dA]RSSLRPYT [SEQ ID NO: 5] | -20 | 24
LERYHHSVRTSLRPYTK [SEQ ID NO: 73] | 47 | 96
